Laboratory results reported in PMC2587052 (Nature structural & molecular biology, 2008).

Molecular target: SNARE complex reconstituted and anchored on supported phospholipid bilayers (rat | human, UniProt P32851;P60880-2;P63045)

Binder	EC50 [nM]
synaptotagmin-1 C2AB fragment (residues 140-421), wild type (domain or fragment) EKLGKLQYSLDYDFQNNQLLVGIIQAAELPALDMGGTSDPYVKVFLLPDKKKKFETKVHRKTLNPVFNEQFTFKVPYSELGGKTLVMAVYDFDRFSKHDIIGEFKVPMNTVDFGHVTEEWRDLQSAEKEEQEKLGDICFSLRYVPTAGKLTVVILEAKNLKKMDVGGLSDPYVKIHLMQNGKRLKKKKTTIKKNTLNPYYNESFSFEVPFEQIQKVQVVVTVLDYDKIGKNDAIGKVFVGYNSTGAELRHWSDMLANPRRPIAQWHTLQVEEEVDAMLAVKK	12
synaptotagmin-1 C2AB fragment (residues 140-421) R398Q,R399Q mutant (domain or fragment) EKLGKLQYSLDYDFQNNQLLVGIIQAAELPALDMGGTSDPYVKVFLLPDKKKKFETKVHRKTLNPVFNEQFTFKVPYSELGGKTLVMAVYDFDRFSKHDIIGEFKVPMNTVDFGHVTEEWRDLQSAEKEEQEKLGDICFSLRYVPTAGKLTVVILEAKNLKKMDVGGLSDPYVKIHLMQNGKRLKKKKTTIKKNTLNPYYNESFSFEVPFEQIQKVQVVVTVLDYDKIGKNDAIGKVFVGYNSTGAELRHWSDMLANPQQPIAQWHTLQVEEEVDAMLAVKK	12
